According to article PMC8716928, “Effect of Mutations in GvpJ and GvpM on Gas Vesicle Formation of Halobacterium salinarum” (Frontiers in Microbiology, 2021):

T1: Fragment L133–281 of GvpL, split-GFP fusion (Halobacterium salinarum, UniProt Q9HI27 133-281)
T1 construct: GvpL, p-vac region of Hbt. salinarum PHH1, residues 133–281 (second of two domains); source: Hfx. volcanii transformant, in cells
T1 sequence (looked up): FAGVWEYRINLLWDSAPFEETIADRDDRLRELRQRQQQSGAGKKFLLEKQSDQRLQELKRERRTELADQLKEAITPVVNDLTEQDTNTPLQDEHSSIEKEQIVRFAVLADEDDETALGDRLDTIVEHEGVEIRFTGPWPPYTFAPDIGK

T2: Fragment F1–110 of GvpF, split-GFP fusion (Halobacterium salinarum, UniProt Q9HI21 1-110)
T2 construct: GvpF, p-vac region of Hbt. salinarum PHH1, residues 1–110 (first of two domains); source: Hfx. volcanii transformant, in cells
T2 sequence (looked up): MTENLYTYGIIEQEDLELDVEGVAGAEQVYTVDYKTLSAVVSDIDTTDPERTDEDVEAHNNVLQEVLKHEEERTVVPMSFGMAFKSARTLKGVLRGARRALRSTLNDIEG

T3: Fragment J47–114 of GvpJ, split-GFP fusion (Halobacterium salinarum, UniProt P24374 47-114)
T3 construct: source: Hfx. volcanii transformant, in cells
T3 sequence (looked up): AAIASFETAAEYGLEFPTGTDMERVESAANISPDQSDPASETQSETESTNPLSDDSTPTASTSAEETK

T4: Fragment L1–134 of GvpL, split-GFP fusion (Halobacterium salinarum, UniProt Q9HI27 1-134)
T4 construct: GvpL, p-vac region of Hbt. salinarum PHH1, residues 1–134 (first of two domains); source: Hfx. volcanii transformant, in cells
T4 sequence (looked up): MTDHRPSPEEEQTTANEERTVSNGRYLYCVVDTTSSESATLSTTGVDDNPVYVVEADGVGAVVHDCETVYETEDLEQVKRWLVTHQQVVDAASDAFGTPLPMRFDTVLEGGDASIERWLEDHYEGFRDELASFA

T5: GvpF, entire protein, split-GFP fusion (Halobacterium salinarum, UniProt Q9HI21 1-213)
T5 construct: GvpF, p-vac region of Hbt. salinarum PHH1, 23 kDa; also called the entire GvpF; source: Hfx. volcanii transformant, in cells
T5 sequence (looked up): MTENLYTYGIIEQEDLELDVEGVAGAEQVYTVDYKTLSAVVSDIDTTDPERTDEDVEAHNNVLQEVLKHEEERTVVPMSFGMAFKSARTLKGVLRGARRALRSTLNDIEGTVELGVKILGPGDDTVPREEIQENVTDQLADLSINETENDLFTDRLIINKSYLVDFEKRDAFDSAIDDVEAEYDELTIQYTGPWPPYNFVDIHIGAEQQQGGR

T6: Fragment J1–56 of GvpJ, split-GFP fusion (Halobacterium salinarum, UniProt P24374 1-56)
T6 construct: GvpJ, p-vac region of Hbt. salinarum PHH1, residues 1–56; source: Hfx. volcanii transformant, in cells
T6 sequence (looked up): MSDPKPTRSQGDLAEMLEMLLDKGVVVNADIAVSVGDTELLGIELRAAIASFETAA

B1: GvpG, split-GFP fusion (natural protein, Halobacterium salinarum, UniProt P24371 1-83, looked up)
chain: MFIIDDLFVSPFFSLLDILQTMALDEMYDTKSIRDDIKENQLLYEVGERSDEEYQQRKQALESQLEMAEQVQEQMRDRMEVKK
notes: GvpG, p-vac region of Hbt. salinarum PHH1; no truncation is mentioned; source: Hfx. volcanii transformant, in cells
B2: GvpK, split-GFP fusion (natural protein)
chain: not shown
notes: GvpK, p-vac region of Hbt. salinarum PHH1; no truncation is mentioned; source: Hfx. volcanii transformant, in cells
B3: GvpM, entire protein, split-GFP fusion of Figure 7 (natural protein, Halobacterium salinarum, UniProt P24377 1-84, looked up)
chain: MEPTKDETHAIVEFVDVLLRDGAVIQADVIVTVADIPLIGISLRAAIAGMTTMTEYGLFEEWDAAHRQQSEAFTTSPTADRRED
notes: GvpM, p-vac region of Hbt. salinarum PHH1; printed as 83 aa and as 84 aa; also called the entire GvpM; source: Hfx. volcanii transformant, in cells
B4: GvpJ, entire protein, split-GFP fusion of Figure 7 (natural protein, Halobacterium salinarum, UniProt P24374 1-114, looked up)
chain: MSDPKPTRSQGDLAEMLEMLLDKGVVVNADIAVSVGDTELLGIELRAAIASFETAAEYGLEFPTGTDMERVESAANISPDQSDPASETQSETESTNPLSDDSTPTASTSAEETK
notes: also called the entire GvpJ; source: Hfx. volcanii transformant, in cells
B5: GvpA, entire protein, split-GFP fusion (natural protein, Halobacterium salinarum, UniProt P08958 1-76, looked up)
chain: MAQPDSSGLAEVLDRVLDKGVVVDVWARVSLVGIEILTVEARVVAASVDTFLHYAEEIAKIEQAELTAGAEAAPEA
notes: GvpA, p-vac region of Hbt. salinarum PHH1, 76 aa; also called the entire GvpA; source: Hfx. volcanii transformant, in cells
B6: Fragment A1–22 of GvpA, split-GFP fusion (peptide, UniProt P08958 1-22, looked up)
chain: MAQPDSSGLAEVLDRVLDKGVV
notes: GvpA, p-vac region of Hbt. salinarum PHH1, first 22 aa including α-helix 1; construct of Völkner et al. 2020; source: Hfx. volcanii transformant, in cells
B7: GvpL, entire protein, split-GFP fusion of Figure 7 (natural protein, Halobacterium salinarum, UniProt Q9HI27 1-281, looked up)
chain: MTDHRPSPEEEQTTANEERTVSNGRYLYCVVDTTSSESATLSTTGVDDNPVYVVEADGVGAVVHDCETVYETEDLEQVKRWLVTHQQVVDAASDAFGTPLPMRFDTVLEGGDASIERWLEDHYEGFRDELASFAGVWEYRINLLWDSAPFEETIADRDDRLRELRQRQQQSGAGKKFLLEKQSDQRLQELKRERRTELADQLKEAITPVVNDLTEQDTNTPLQDEHSSIEKEQIVRFAVLADEDDETALGDRLDTIVEHEGVEIRFTGPWPPYTFAPDIGK
notes: GvpL, p-vac region of Hbt. salinarum PHH1, 32 kDa; also called the entire GvpL; source: Hfx. volcanii transformant, in cells
B8: Fragment A44–76 of GvpA, split-GFP fusion (domain or fragment, Halobacterium salinarum, UniProt P08958 44-76, looked up)
chain: VAASVDTFLHYAEEIAKIEQAELTAGAEAAPEA
notes: GvpA, p-vac region of Hbt. salinarum PHH1, residues 44–76; construct of Völkner et al. 2020; source: Hfx. volcanii transformant, in cells
B9: Fragment M1–25 of GvpM, split-GFP fusion of Figure 7 (peptide, UniProt P24377 1-25, looked up)
chain: MEPTKDETHAIVEFVDVLLRDGAVI
notes: GvpM, p-vac region of Hbt. salinarum PHH1, N-terminal 25 aa; also called M25N; M(25N); source: Hfx. volcanii transformant, in cells
B10: Fragment M60–84 of GvpM, split-GFP fusion (peptide, UniProt P24377 60-84, looked up)
chain: EEWDAAHRQQSEAFTTSPTADRRED
notes: GvpM, p-vac region of Hbt. salinarum PHH1, C-terminal 25 aa; also called M25C; M(25C); source: Hfx. volcanii transformant, in cells
B11: GvpH, split-GFP fusion (natural protein, Halobacterium salinarum, UniProt P24372 1-182, looked up)
chain: MVPDENDDASDDQSSQLSGLLDQLHTLVEVLADIEEEGGHRHESGRIDRGNARIDYDYDVSIGLGRADGSSYDEEPSSNRSRSEQRSGQQRTTEDSIHVETRGGTSGDELVVVADLPGVTDDDVDVALDTDEQALTLRVDDDVVERVVLDRPDVAITDMTLRNQVLEIRLARTSDTDGGEST
notes: GvpH, p-vac region of Hbt. salinarum PHH1; no truncation is mentioned; source: Hfx. volcanii transformant, in cells

Molecular target: T1, Fragment L133–281 of GvpL, split-GFP …
Assay: split reporter (BiFC, NanoBiT); split-GFP (mGFP2) in Hfx. volcanii transformants, entire Gvp proteins and fragments (Figure 7); arrangement of the GFP portions not stated; relative fluorescence (rf) of cells against untransformed WR340
Details: partners not purified

Row | relative fluorescence (rf) | Binder
1 | < 2.6 rf | B1
2 | 6.1 rf | B2
3 | < 2.6 rf | B3
4 | < 2.6 rf | B4

Molecular target: T2, Fragment F1–110 of GvpF, split-GFP …
Assay: as above
Details: partners not purified

Row | relative fluorescence (rf) | Binder
5 | < 4 rf | B5
6 | < 4 rf | B6

Molecular target: T3, Fragment J47–114 of GvpJ, split-GFP …
Assay: as above
Details: partners not purified

Row | relative fluorescence (rf) | Binder
7 | < 5 rf | B2
8 | < 5 rf | B3
9 | < 5 rf | B4

Molecular target: T4, Fragment L1–134 of GvpL, split-GFP …
Assay: as above
Details: partners not purified

Row | relative fluorescence (rf) | Binder
10 | < 2.6 rf | B1
11 | < 2.6 rf | B3
12 | < 2.6 rf | B4

Molecular target: B7
Assay: as above
Details: partners not purified

Row | relative fluorescence (rf) | Binder
13 | 77.5 rf | B1
14 | 7.4 rf | B2

Molecular target: T5, GvpF, entire protein, split-GFP fusion
Assay: as above
Details: partners not purified

Row | relative fluorescence (rf) | Binder
15 | 20 rf | B5
16 | 41 rf | B6

Molecular target: T6, Fragment J1–56 of GvpJ, split-GFP fusion
Assay: as above
Details: partners not purified

Row | relative fluorescence (rf) | Binder
17 | 6.7 rf | B7

Molecular target: T3, Fragment J47–114 of GvpJ, split-GFP …
Assay: as above
Details: partners not purified
Remark: another data set of the same source

Row | relative fluorescence (rf) | Binder
18 | 5 rf | B8
19 | 20 rf | B9
20 | 15 rf | B1
21 | 20 rf | B10
22 | 11 rf | B7
23 | 13 rf | B11
24 | 5 rf | B6

Molecular target: T6, Fragment J1–56 of GvpJ, split-GFP fusion
Assay: as above
Details: partners not purified
Remark: another data set of the same source

Row | relative fluorescence (rf) | Binder
25 | 20 rf | B9
26 | 20 rf | B10
27 | 20 rf | B7
28 | 10 rf | B6
